Experimental findings from a protein production outcome set (Wang et al. 2014) are described below.

A short description of this data set: label from the status in PepcDB records.
As to “TKGEKKQESFLLEYVSANPTGPLHIGHARGAVFGDTLTRLARHLGYKFNTEYYVNDAGNQIYLLGLSILLSVKESILHENVEYPEQYYKGEYIVDLAKEAFEKFGKEFFSEENIPSLADWAKDKMLVLIKQNLEQAKIKIDSYVSERSYYDALNATLESLKEHKGIYEQEGKIWLASSQKGDEKDRVIIREDGRGTYLAADIVYHKDKMSRGYGKCINIWGADHHGYIPRMKAAMEFLGFDSNNLEIILAQMVSLLKDGEPYKMSKRAGNFILMSDVVDEIGSDALRYIFLSKKCDTHLEFDISDLQKEDSSNPVYYINYAHARIHQVFAKAGKKID”, the protein production entry was “failed”.
Then “MADNTLHSSARANWLERRFALRSRGGTLRTECLAGITGFLAAAYLLVVIPGLLAIGGMDKGAATTGTILVFVVGSLLMAFYANLPFIVGPGIGGSVLVGVTLAGSEGIGWQTGLGIACWSGILFFLLTRFGLREVVTRSVPQSIKLGLTASIGLFVAVLGFRNAGLVLANAKTNALMLGDFLAPGALVALCGLFLAIALQARKVPGAILWAILCATLVGIPFGVTKLPTHFIDAPHSLAPVLGQVDLLGALNIAFLPFLFVFFASEFFSTMGTTLAVGGEAGLLDEEGNMPQINRPFMVDSIAAALGPWLGIPAATALIESSAAAEAGGKTGLTALSAAVMFLLMLLFTPVALMIPKEATAPALILIGLNMFSGLRKVDLANFTDGLPVLMMVMITLIANSFGTGIAGGLLFYIVIKAIAGKWREIPIGLWVLAVPLVYYFATLVRH”, with “failed”; and “MDQKPQPAKTHATEVTVLEGKTMGTFWRASIPGIDAKRSAELKEKIQTQLDADDQLLSTYKKDSALMRFNDSQSLSPWPVSEAMADIVTTSLRIGAKTDGAMDITVGPLVNLWGFGPEQQPVQIPSQEQIDAMKAKTGLQHLTVINQSHQQYLQKDLPDLYVDLSTVGEGYAADHLARLMEQEGISRYLVSVGGALNSRGMNGEGLPWRVAIQKPTDKENAVQAVVDINGHGISTSGSYRNYYELDGKRLSHVIDPQTGRPIEHNLVSVTVIAPTALEADAWDTGLMVLGPEKAKEVVRREGLAVYMITKEGDSFKTWMSPQFKSFLVSEKNLEHHHHHH”, with “not failed”; and “MNAADRVMQSYGRCCASTGFFDDFYRHFLASSPQIRAKFATTDMTAQKHLLRAGIMNLVMYARGMSDSKLRALGASHSRAALDIRPELYDLWLDALLMAVAEHDRDCDAETRDAWRDVMGRGIAVIKSYY”, with “not failed”.
The entry for “MTKPSRPDAPGDGRPRRLPGVARCRRDAAGHPPAHRLRWLQLLIWLVPMLAALVSIGLVAGQVRGHGPAITLGFQDGEGIEPGKTPVRYNDVDIGMVTAVRLSTDLSRVLVTVQLNQEAADFATHGTRFWIVRPRAGMSGASGLGTLLSGTYIGADSGGSHEPETQFTGLENPPVVSLRQQGARFVLRGPSLGSVETGSPVYYRHVEVGQVTGTALDKDGAGVTIDVFIEAPYHRYVGRDTQWRHASGLGLRLDAAGLRVNAESFQTMLLGGIAFQPSPGQPAGDAVPDGTVFGLQSGDLDAADGPDGKPSTVVMHFDQSLHGLSVGAAVDFRGVQLGEVTNVGVAFDPKTHTFVMPVTLNLYPDRLGQAFRASSEYGDAAAGKALLRTLVARGLRGQLRTGNLLTNQLYVALDMFPNAPPVQLDLNGTLIALPTIPNTLDDLQAQVADLAKTLDRVPLDQLGTHLGQRLDNARRLFALTDAQLAPQARATLAAARQAFDAAQAIAQSPLLRPADLSRVREQLGQTLRALDTLTDTVAQHPESLVWGPAVDTRTAQSP” is “failed”; for “LPPKKFGNPGERLRKKKWDLSELPKFEKNFYVEHPEVARLTPYEVDELRRKKEITVRGGDVCPKPVFAFHHANFPQYVMDVLMDQHFTEPTPIQCQGFPLALSGRDMVGIAQTGSGKTLAYLLPAIVHINHQPYLERGDGPICLVLAPTRELAQQVQQVADDYGKCSRLKSTCIYGGAPKGPQIRDLERGVEICIATPGRLIDFLESGKTNLRRCTYLVLDEADRMLDMGFEPQIRKIVDQIRPDRQTLMWSATWPKEVRQLAEDFLRDYTQINVGNLELSANHNILQIVDVCMESEKDHKLIQLMEEIMAEKENKTIIFVETK” it is “failed”; for “MSGISSLGGRVGVTILEILIFSAGLLLLIKGSDIFVEAATRIAEAFKVSEFLIALVLASVATTLPEVTVSAISSYRGNSGIAIGNAVGSALANIALILAISAMIMPLNVDKIASENSLIMVGVTFYAWLLMSNGEISRIEGLTLVLIYAAFLYYLYRKHVKLEEVEKKSRCNVTRDVLILFLSGGMVILGAELVVDSAVKIARAIGIPEVVIGVTLVSIGTSLPEFANSLTATLKKIPNVSVGNIIGADILDILMVIGIASMIRPIRVDPSIVKIVMPITLLVMIILTVSLFRNNKIGRKTAVTLLIIYSAFIYLLTQGKVYIPG” it is “failed”.
Then “MNKLEERSQHRKSRFRFLVISTFWRVLLLLKNDAEPLFHLGNIHYAYGHKASAMNYWKEAVSKNREHEKAWHNLVQCAVIQEEWEQAAEGLTILCRNHPTRFEYMSLYTHALKKLGKKEELEEWYLSHINGPHHEWAIEGLGMLYIRTRREIDAFKLLSPFVRKFPNRPVGLKILGISSIRTNQYEAGLTFLEKSLELKEDKEVKSLVDRVKRLKKVRGGNR”, with “failed”; and “MDSAAVAFTTLDYVIFGVYLFVIVGLGLWVSQEEEGEEKDSADYFLASKALPFWAIGSSLIAANISAEQFIGMSGSGFRVGLAIASYEWMAAVTLLVIAWFFLPIYLEKEIYTMPQFLEERYDGRVRMLLAIFWLLVYVFVNLTSVLYMGGLSINVIMGFPLWASVLGLAAVATAYSLYGGLKAVAWTDVVQVVVLVGGGLLTTWVALDAYGGSEAGVVGGFTQLMGDASGRFNMILFEGELMYRNDEGALKDAYQLLPGLSVLFGGLWVANLFYWGCNQYIIQRALAAKSLKEAQRGLAFAGYLKLLLPLIVVVPGIVAFALDAPIQRGDEAYPWLLGEYVGSGFRGLAFAALVAAIISSLASMMNSASTIFTMDLYRNYTSREDVSERRLVRIGRAVALICIVVAAALAPQLADLDQVFQYIQEYTGFVSPGVLAIFVLGLFWSKATPNAALVSAVLSIPLSAAFKFWTPGVAFLNRMLIVFFISVALIVAISLLENEGEDHPKAIDVGGIERERDPIYNVAAFGILAITAALYAFFW”, with “failed”.
“MLMHATMAALAVFICFAGNYLTGQSMMERPLVVGLVTGILMGDMKTGVLMGASLEAIFLGNVNIGGVIAAEPVTATTLATTFAIISNVEQKAAMTLAVPIGMLAAFVVMFLKNVFMNIFAPSLDKAAREGNQKMVVTLHYGTWIIYYLIIASISFIGILAGSGPVNLFVESIPQNLMNGLSAAGGLLPAVGFAMLMKLLWDNKLAVFYILGFVLTAYLQLPAVAVAVIGTVICVVSAQRDVEFRDILKRKPAASSAVEGSAKEIEEEDFFA”: the protein production result is “failed”.
For the sequence “MKPRIYVKVKPERLGAVIGPRGEVKAEIMRRTGTVITVDTENSMVIVEPEAEGIPPVNLMKAAEVVKAISLGFPPEKAFRLLEEDQILVVVDLKQVVGDSQNHLKRIKGRIIGEGGRARRTIEEMTDTYINVGEYEVAIIGDYERAMAAKQAIEMLAEGRMHSTVYRHLERIMREIKRRERLKMWAREEL”, the protein production entry was “not failed”.
Then “MTKTALVLGTVATLAVASVAAPAPAEARNGIGPFIGGLAAGALIAGVASNAYAYGPGYGYYGGGPYYGGGPYYGYAPRYVGYYGGPAYYGGGYGWGGPRYYRPRPVYYGYRSYYRPYRGGYYGAPVIRAGYGPGWGGHRHWHHHRHW”, with “failed”; and “MLKTPYYLIDKRALLQNLEVIRRIRERSGAKVLLALKCFATWSVFDLMREYMDGTTSSSLFEVRLGREKFGGETHAYSVAYAEDDIDDVVACADKIIFNSLSQLERYAPRASAIPRGLRLNPGISVSGYDLANPARPFSRLGETDLDRIAQAMPMIDGFMVHNNCENRDFTRFDALLTELEHRYGHLLGQINWISLGGGIHFTEPGYALDAFCDRLRRFSEQYGVQVYLEPGEAAITNTATLEVTVLDVMRNEKNLAIVDAATEAHMLDLLIYRMSARVQPDQGPHRYVIYGNSCLAGDVFGEFSFESPLQPGSRISIQDAAGYTMVKKNWFNGVRMPAIAIRELDGEIRLVREFGYQDYVDSLS”, with “failed”.
The entry for “MTQDNASGDQVSKQHKAFLRKLYLAHLMDDARHNLLSLGKLTGMPRRTLQDAIASFADIGIEVEFVQDGERHNAGYYRIRTWGPISSAWMDTHVDEVKSLLGVDDAVGQATAGNGA” is “not failed”.
Then “GQLSIKLWFDKVGHQLIVTILGAKDLPSREDGRPRNPYVKIYFLPDRSDKNKRRTKTVKKTLEPKWNQTFIYSPVHRREFRERMLEITLWDQARVREEESEFLGEILIELETALLDDEPHWYKLQTHD”, with “not failed”; and “MAGDYHRGEMDIQEQAATYDAFGKMTKWGSLAISVLLLFFTLLFCTSAGFIGSAIASIVLLVLGVVLLKEKPTQSH”, with “failed”.
Turning to “MLQKDPCLDDILENSEKLENNSNKKNIDSIDTIKLSDIIEKMIEINSIVRIEKIFEEKIVSQNPVVNVVVNDGSARGLLSLWSEQISLLNELNEGDAILIENAHAPKKYKDRIHLALSKSGKISKIESDLPTIDELLKKSSAQRNDFSRKSISELKEGIGAELRGLIVAIHSKEPYFPVCDKCNKKMTLKKGYAVCKCGNKVDEEDENLKWLFLCTCTLDDGSGTIRVTLNNNTNYLDLEELKKIIIDDEEILDVLNNKLLGLDILTSGFTIYDEYLKDTAFRCNNWNKIDIMEEFNKKLKGLEHHHHHH”, the protein production result is on record as “not failed”.
The entry for “MSTVETPVYVPRTVVHKFGGTSVADADCYRHVTRLLLAREETVQVTIVSAMKGVTDTLIALAEQAANHSPDWQVLWQQTRTRHCDAAQALLGEHAATLQDWLNTRFNELHEMLVALSVIGMLPSEVLDRLQGLGEVYSAQLLGHYLQSQGEDCVVLDARQVLVVSPGEFGAEVDWATSAQHLAHWRMQHPQRRVVVTGFVASDRTGRAITLGRNGSDYSGAIFAALFEADELHIWTDVDGVMSADPRVVPDAVQLDALSYDEACELAYFGAKVVHPQTMSPVMKRGVPIIIRNTFQPGHPGTRITADSVVSGSVKGLTLSPGLAVLNLEGTGLIGVPGTAERVFAALRNARLSVVMISQGSSEHSICCLVHQTEAERARDALLYAFAHELAIGHVQRVQLTNNISVLAAVGDGMAGHLGVAARLFESLRRAHVNILAIAQGSSERNISVAIDSQQATKALRAAHAAFWLSPQTFSIGVIGPGHVGEALLDQLCAAQQQLLSKANLDLRLRAIVSRRRMLLDERGLGSDWRHAFAAAPEAVDLDAFTAHLQAAHLPHAVIIDCSGSAEVADRYADWLAAGIHVVTPNKQAGSGPLHRYHAIRAAADASGARFRYEATVGAGLPVITTLRDLMDTGDSVTSIEGIFSGTLAWLFNKYDGSVPFSQLIAQARAMGYTEPDPRDDLSGVDVARKLVILARDAGRDISLEDVAVESLVPETLCQLSVADFMERLNEIDATFAERLAAAKQRGCVLRYVAQLSPGHVPSVSLIELPSDHAFVNLRLTDNVVQFTTRRYSENPLIVQGPGAGPEVTAAGVFADLLRVAAGEGARL” is “failed”.
The entry for “STRPVGGTEYSWCRAIDGGTGIAVIALLLSRTPKLQNLQNTLDKLQIYHPTLRSNIRFDASANSFSFVVTSAADSHVEIHPFDSVSTAQIIRDSDDPCADPHRIILEHEMNKNTWINPHRWIKSESRVFIVSLYDLTDDGEQRILTFRLNTAAVDRTAAVTLLREFMKETAADGFGNGPVVAATETAVGLGKAIEELIPSGKGDKPFWARGIDVLGYSLNAFRFSNLNFVDAENSNRRSQLVRLKLDRDQTLKLVAGCKARGLKLWAALASSALIAAYSSKNLPPYQGEKYAVVTLSDCRSILEPPLTSNDFGFYHAGILHTHDLTGEEKLWDLAKRCYDSFTSSKNSNKQFTDMSDLNFLMCKAIENPNLTPSSSLRTAFISIFEDPVIDESPEPELASLGVQDYIGCASIHGVGPSVAVFDALRDGKLDCAFVYPSPLHSREQMDGLIQHMKTILLEGSASSF” is “not failed”; for “DELEAAAESLEDGSLILEGSTDIRHVSLLLNRDLVDESEEYSTLSGYILFHLGRLPENGQKMHADGYIFEVVTMDGHKIEKVHIVADP” it is “failed”.
